The source of these data is patent US20050181476.

Data set [1] deals with MyD88.
Data set [2] concerns the target E-MyD88S.

Chain of E-MyD88S (chain, as listed by the source): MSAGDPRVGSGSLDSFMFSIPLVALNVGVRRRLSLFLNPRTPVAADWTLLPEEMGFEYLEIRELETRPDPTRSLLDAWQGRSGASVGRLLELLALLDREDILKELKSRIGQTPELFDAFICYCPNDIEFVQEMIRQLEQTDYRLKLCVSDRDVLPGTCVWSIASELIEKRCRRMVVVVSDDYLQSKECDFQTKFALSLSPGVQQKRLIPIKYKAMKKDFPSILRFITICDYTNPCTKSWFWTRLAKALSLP

B1: IRAK-4 (protein)
chain: MNKPITPSTYVRCLNVGLIRKLSDFIDPQEGWKKLAVAIKKPSGDDRYNQFHIRRFEALLQTGKSPTSELLFDWGTTNCTVGDLVDLLIQNEFFAPASLLLPDAVPKTANTLPSKEAITVQQKQMPFCDKDRTLMTPVQNLEQSYMPPDSSSPENKSLEVSDTRFHSFSFYELKNVTNNFDERPISVGGNKMGEGGFGVVYKGYVNNTTVAVKKLAAMVDITTEELKQQFDQEIKVMAKCQHENLVELLGFSSDGDDLCLVYVYMPNGSLLDRLSCLDGTPPLSWHMRCKIAQGAANGINFLHENHHIHRDIKSANILLDEAFTAKISDFGLARASEKFAQTVMTSRIVGTTAYMAPEALRGEITPKSDIYSFGVVLLEIITGLPAVDEHREPQLLLDIKEEIEDEEKTIEDYIDKKMNDADSTSVEAMYSVASQCLHEKKNKRPDIKKVQQLLQEMTAS
B1: the “IRAK-4-induced IRAK-1KD phosphorylation (slower migrating species in SDS-PAGE; in vitro kinase assay)” value in data set [1] is recorded as “Addition of MyD88, however, significantly enhanced IRAK-4-induced IRAK-1KD phosphorylation”. In data set [2], the “in vitro phosphorylation of IRAK-1KD induced by IRAK-4 co-expression” value is reported as “in vitro phosphorylation of IRAK-1KD induced by IRAK-4 co-expression was completely inhibited when MyD88S was co-expressed”.
